Columns and labels:
[1] = target: Peptide N-YEPEA-C (SEQ ID NO: 11), residues Y136-A140 of full-length α-synuclein (Homo sapiens, UniProt P37840); experiment: Isothermal titration calorimetry (ITC) of NbSyn2 binding to C-terminal peptide fragment of α-synuclein
Method: Calorimetric measurements were recorded using a MCS-ITC calorimeter (MicroCal, LLC, Northampton, Mass., USA). […] Both proteins were dialyzed prior to measurements in exactly the same buffer containing 10 mM phosphate, 150 mM sodium chloride at a pH of 7.4. Each injection was performed every four minutes at the desired temperature. […] The thermodynamic analysis was performed using the Microcal analysis software (Origin 7.0) with a 1:1 binding model. The temperature dependence of ΔH, allowed the calculation of ΔCp through the relationship ΔCp=δΔH/δT. The contribution of protonation to the ΔH was evaluated using a 10 mM Tris-HCL buffer 100 mM NaCl at pH 7.4.

[2] = system: EPEA (SEQ ID NO:1)-tagged Rev protein; experiment: In vivo detection of EPEA-tagged Rev in transfected HeLa cells by confocal microscopy; format: cell-based, HIV; conditions: nanobody fused to mKO1 or GFP, GYQDYEPEA and EPEA tags
From the text: In another set of experiments, we explored the use of the EPEA (SEQ ID NO:1) tag to detect/visualize the expression of recombinant proteins within a (living) eukaryotic cell. […] Cells that are double-transfected with Rev-[sequence] (SEQ ID NO:10) or Rev-[sequence]
The two different tags [sequence] (SEQ ID NO:2) and EPEA (SEQ ID NO:1) were C-terminal fused to Rev by PCR using Takara Ex Taq polymerase (TAKARA BIO INC).
HeLa, human epithelial cells were maintained using standard procedures until confluent in DMEM medium with 10% fetal calf serum. For transfection of plasmid DNA in HeLa, cells were harvested by a Trypsin/EDTA treatment, counted and plated onto glass bottom microwell dishes (MatTek corporation). Transfections were preformed according to manufacturer's manual: the 4×10^5 cells were seeded in a 35 mm dish. […]
Transfected HeLa cells were imaged with a laser scanning SP5 confocal microscope (Leica Microsystems) equipped with an AF 6000 microscope and an AOBS, using a HCX PL APO×63 (NA 1.2) water immersion objective magnification. GFP was monitored with the Ar laser using the 488-nm line for excitation, and emission was detected between 492 and 570 nm. mKusabira orange fluorescent protein (mKO) was imaged using the DPSS-561 nm laser for excitation, and emission was detected between 570 and 675 nm.

“NbSyn2: Nanobody that specifically binds to α-synuclein, 126 amino acids, SEQ ID NO:21” showed a Kd ([1]; 293.1 K) of 240 ± 26 nM, a Kd ([1]; 298.1 K) of 190 ± 30 nM and a Kd ([1]; 303.1 K) of 460 ± 110 nM. The Kd ([1]; 310.1 K) was 850 ± 130 nM and the “Recognition of tagged Rev in double-transfected cells (colocalization in the nucleus)” value [2] was “recognized in vivo”.

From patent US9518084B2, “Epitope tag for affinity-based applications” (VIB VZW, priority 2010, dated 2016)
